{
  "source": "patent US20090068195A1",
  "about": "(Pfizer, published 2009)",
  "binders": {"B1": {"name": "sIL-13Rα2-Fc (soluble human IL-13 receptor alpha 2 Fc fusion) (Fc fusion, UniProt Q14627 27-343, looked up, not shown: a dimerising Fc or GST)", "chain": "DTEIKVNPPQDFEIVDPGYLGYLYLQWQPPLSLDHFKECTVEYELKYRNIGSETWKTIITKNLHYKDGFDLNKGIEAKIHTLLPWQCTNGSEVQSSWAETTYWISPQGIPETKVQDMDCVYYNWQYLLCSWKPGIGVLLDTNYNLFYWYEGLDHALQCVDYIKADGQNIGCRFPYLEASDYKDFYICVNGSSENKPIRSSYFTFQLQNIVKPLPPVYLTFTRESSCEIKLKWSIPLGPIPARCFDYEIEIREDDTTLVTATVENETYTLKTTNETRQLCFVVRSKVNIYCSDDGIWSEWSDKQCWEGEDLSKKTLLR"}, "B2": {"name": "non-human primate (cynomolgus monkey) IL-13 (ligand)", "chain": "SPVPPSTALKELIEELVNITQNQKAPLCNGSMVWSINLTAGVYCAALESLINVSGCSAIEKTQRMLNGFCPHKVSAGQFSSLRVRDTKIEVAQFVKDLLVHLKKLFREGQFN", "notes": "the construct used in the assays is not described; Also used here for endogenous IL-13 of cynomolgus monkeys in the PK-PD fits; also called NHP IL-13; NHP-IL-13"}},
  "key": {"[1]": {"molecular_target": "B2", "test": "cell-based or functional assay"}, "[2]": {"molecular_target": "native human IL-13 (human, UniProt P35225 34-146, limits assumed)", "sequence (P35225 other isoform, or with tags, fused parts or gaps limits assumed)": "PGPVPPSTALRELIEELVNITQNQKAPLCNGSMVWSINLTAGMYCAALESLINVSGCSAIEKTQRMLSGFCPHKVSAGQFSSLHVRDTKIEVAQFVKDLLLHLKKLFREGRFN", "test": "cell-based or functional assay"}, "[3]": {"molecular_target": "T1, NHP-IL-13 in a complex with immobilised hu IL-13Rα2-Fc (cynomolgus monkey; human, UniProt Q14627 27-343, limits assumed)", "T1 construct": "Pre-formed ligand-receptor complex on a CM5 chip; not shown: Fc part", "test": "SPR (BIACORE): antibody injected over NHP IL-13 held by immobilised sIL-13Ralpha2-Fc", "description": "(§1) sIL-13RI2-Fc was directly coated onto a CM5 chip by standard amine coupling. NHP-IL-13 at 100 nM concentration was injected, and its binding to the immobilized IL-13RI2-Fc was detected by BIACORE3. An additional injection of 100 nM of anti IL-13 antibodies was added, and changes in binding were monitored."}, "[4]": {"molecular_target": "T2, FLAG-tagged NHP IL-13 (cynomolgus monkey, UniProt Q5I6E4 21-132 (Macaca thibetana entry), limits assumed)", "T2 chain": "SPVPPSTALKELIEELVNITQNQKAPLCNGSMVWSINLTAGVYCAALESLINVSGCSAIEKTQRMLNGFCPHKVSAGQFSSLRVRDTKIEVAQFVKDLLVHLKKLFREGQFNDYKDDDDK", "test": "competition ELISA: IL-13Ralpha1-Fc coated on the plate, FLAG-tagged NHP IL-13 added with rising MJ2-7; the blocked partner is IL-13Ralpha1-Fc", "description": "(§2) The ability of MJ2-7 to inhibit binding of NHP IL-13 to IL-13RI1 and IL-13RI2 was tested by ELISA. Recombinant soluble forms of human IL-13RI1-Fc and IL-13RI2-Fc were coated onto ELISA plates. FLAG-tagged NHP IL-13 was added in the presence of increasing concentrations of MJ2-7. […] This provides a basis for the neutralization of IL-13 bioactivity by MJ2-7."}, "[5]": {"molecular_target": "T2, FLAG-tagged NHP IL-13", "test": "competition ELISA: IL-13Ralpha2-Fc coated on the plate, FLAG-tagged NHP IL-13 added with rising MJ2-7; the blocked partner is IL-13Ralpha2-Fc", "description": "as §2"}, "[6]": {"molecular_target": "B1", "test": "SPR (BIACORE): sIL-13Ralpha2-Fc amine-coupled to a CM5 chip, NHP IL-13 injected at 100 nM", "description": "as §1"}, "[7]": {"molecular_target": "B2", "test": "sandwich ELISA for total IL-13 in monkey serum, non-human primate IL-13 standards", "description": "The concentrations of total IL-13 in serum samples obtained from hMJ2-7v.2-11-treated monkeys were determined using quantitative ELISA. […] After blocking and washing, the serum samples containing IL-13 from in vivo studies or the non-human primate IL-13 standards were incubated on the plate to allow for binding to the anti-IL-13 capture antibody. […] Streptavidin conjugated to HRP and the enzyme substrate 3,3′,5,5′-tetramethylbenzidine (TMB) peroxidase were added and optical densities were measured at 450 nm. The low limit of quantitation of the assay was approximately 0.15 ng/mL."}},
  "data": [
    {"binder": "mouse monoclonal antibody C65 (antibody, V domains shown) VH: QVQLKESGPGLVAPSQSLSITCTVSGFSLTGYGVNWVRQPPGKGLEWLGIIWGDGSTDYNSALKSRLIINKDNSKSQVFLKMNSLQTDDTARYFCARDKTFYYDGFYRGRMDYWGQGTSVTVSS VL: DVQMIQSPSSLSASLGDIVTMTCQASQGTSINLNWFQQKPGKAPKLLIFGASNLEDGVPSRFSGSRYGTNFTLTISSLEDEDMATYFCLQHSYLPWTFGGGTKLEIK", "values": [
      {"measurement": "fold decrease in monocyte CD23 expression, potency against MJ2-7", "setting": "[1]", "value": "~20", "unit": "fold"},
      {"measurement": "fold decrease in STAT6 phosphorylation in HT-29 cells, potency against MJ2-7", "setting": "[2]", "value": "~20", "unit": "fold"}
    ]},
    {"binder": "B1", "values": [
      {"measurement": "STAT6 phosphorylation in HT-29 cells, IC50", "setting": "[2]", "value": 0.33, "unit": "nM"}
    ]},
    {"binder": "humanized MJ2-7 v.2-11 (antibody, human IgG1, kappa, V domains shown) VH: EVQLVESGGGLVQPGGSLRLSCAASGFNIKDTYIHWVRQAPGKGLEWIGRIDPANDNIKYDPKFQGRFTISADNAKNSAYLQMNSLRAEDTAVYYCARSEENWYDFFDYWGQGTLVTVSS VL: DIQMTQSPSSLSASVGDRVTITCRSSQSIVHSNGNTYLEWYQQKPGKAPKLLIYKVSNRFSGVPSRFSGSGSGTDFTLTISSLQPEDFATYYCFQGSHIPYTFGGGTKVEIKR", "values": [
      {"measurement": "STAT6 phosphorylation in HT-29 cells, IC50", "setting": "[2]", "value": 0.52, "unit": "nM"}
    ]},
    {"binder": "mouse monoclonal antibody MJ 2-7 (antibody, mouse IgG1, V domains shown, also called mAb7.1.1; murine MJ2-7) VH: EVQLQQSGAELVKPGASVKLSCTGSGFNIKDTYIHWVKQRPEQGLEWIGRIDPANDNIKYDPKFQGKATITADTSSNTAYLQLNSLTSEDTAVYYCARSEENWYDFFDYWGQGTTLTVSS VL: DVLMTQTPLSLPVSLGDQASISCRSSQSIVHSNGNTYLEWYLQKPGQSPKLLIYKVSNRFSGVPDRFSGSGSGTDFTLKISRVEAEDLGVYYCFQGSHIPYTFGGGTKLEIK", "values": [
      {"measurement": "CD23 expression, IC50", "setting": "[1]", "value": "~0.242", "unit": "nM"},
      {"measurement": "STAT6 phosphorylation in HT-29 cells, IC50", "setting": "[2]", "value": 0.48, "unit": "nM"},
      {"measurement": "STAT6 phosphorylation, IC50", "setting": "[2]", "value": "~0.293", "unit": "nM"},
      {"measurement": "tenascin C production by BEAS-2B cells, IC50", "setting": "[2]", "value": "~0.1", "unit": "nM"},
      {"measurement": "binding result", "setting": "[3]", "value": "no binding"},
      {"measurement": "IC50 (read off the curve)", "setting": "[4]", "value": "~0.4", "unit": "nM"},
      {"measurement": "IC50 (read off the curve)", "setting": "[5]", "value": "~0.08", "unit": "nM"}
    ]},
    {"binder": "B2", "values": [
      {"measurement": "binding result", "setting": "[6]", "value": "binds"}
    ]},
    {"binder": "humanized 13.2v.2 (antibody, V domains shown, Humanized form of mAb13.2; also called h13.2v2; h13.2v.2) VH: EVQLVESGGGLVQPGGSLRLSCAASGFTFISYAMSWVRQAPGKGLEWVASISSGGNTYYPDSVKGRFTISRDNAKNSLYLQMNSLRAEDTAVYYCARLDGYYFGFAYWGQGTLVTVSS VL: DIQMTQSPSSLSASVGDRVTITCKASESVDNYGKSLMHWYQQKPGKAPKLLIYRASNLESGVPSRFSGSGSGTDFTLTISSLQPEDFATYYCQQSNEDPWTFGGGTKVEIK", "values": [
      {"measurement": "binding result", "setting": "[7]", "value": "binds"}
    ]}
  ]
}
